Data on seven molecules can be found in patent US20250262210A1 (TRUSTEES OF COLUMBIA UNIVERSITY IN THE CITY OF NEW YORK, published 2025).

The target of test [1] is T1, LZTR1 R810W-FLAG (human, UniProt Q8N653 1-840).
T1 construct: Stably expressed in U87 cells by lentivirus; also called LZTR1-FLAG-R810W; LZTR1 RW; not shown: FLAG tag
T1 sequence (looked up): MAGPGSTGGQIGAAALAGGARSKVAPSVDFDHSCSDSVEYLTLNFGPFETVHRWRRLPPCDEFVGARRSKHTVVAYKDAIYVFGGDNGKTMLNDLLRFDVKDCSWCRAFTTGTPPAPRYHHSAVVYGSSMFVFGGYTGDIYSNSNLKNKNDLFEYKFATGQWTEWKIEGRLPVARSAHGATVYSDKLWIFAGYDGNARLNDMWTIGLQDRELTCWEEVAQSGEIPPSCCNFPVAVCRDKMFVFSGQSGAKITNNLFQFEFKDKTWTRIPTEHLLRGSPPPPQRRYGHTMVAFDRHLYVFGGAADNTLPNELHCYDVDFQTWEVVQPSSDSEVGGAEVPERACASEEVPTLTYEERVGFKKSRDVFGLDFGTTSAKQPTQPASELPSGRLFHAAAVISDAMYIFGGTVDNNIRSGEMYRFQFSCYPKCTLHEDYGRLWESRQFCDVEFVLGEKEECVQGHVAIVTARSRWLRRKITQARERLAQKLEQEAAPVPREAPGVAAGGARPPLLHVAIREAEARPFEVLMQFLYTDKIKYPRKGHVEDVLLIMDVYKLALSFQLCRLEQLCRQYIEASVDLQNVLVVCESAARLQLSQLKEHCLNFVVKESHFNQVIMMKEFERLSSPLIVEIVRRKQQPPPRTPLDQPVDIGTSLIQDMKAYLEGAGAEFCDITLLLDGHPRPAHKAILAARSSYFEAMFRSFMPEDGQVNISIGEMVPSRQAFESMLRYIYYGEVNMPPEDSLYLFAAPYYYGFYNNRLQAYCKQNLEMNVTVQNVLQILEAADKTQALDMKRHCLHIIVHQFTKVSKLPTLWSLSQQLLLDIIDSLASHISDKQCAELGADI
Description: IP/MS, LZTR1 R810W-FLAG, U87. In outline:
(§1)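 Extracted peptides in 3% acetonitrile/0.1% formic acid ran on a 50 cm C18 column into an Orbitrap Fusion, with MaxQuant identification and spectral counting.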

Test [2] has as its target T2, LZTR1-FLAG (human, UniProt Q8N653 1-840).
T2 construct: Expressed in HEK 293T, HeLa or U87 cells; used as cell lysate; also called LZTR1 wild type-FLAG; LZTR1 WT; not shown: FLAG tag at the C-terminus
T2 sequence (looked up): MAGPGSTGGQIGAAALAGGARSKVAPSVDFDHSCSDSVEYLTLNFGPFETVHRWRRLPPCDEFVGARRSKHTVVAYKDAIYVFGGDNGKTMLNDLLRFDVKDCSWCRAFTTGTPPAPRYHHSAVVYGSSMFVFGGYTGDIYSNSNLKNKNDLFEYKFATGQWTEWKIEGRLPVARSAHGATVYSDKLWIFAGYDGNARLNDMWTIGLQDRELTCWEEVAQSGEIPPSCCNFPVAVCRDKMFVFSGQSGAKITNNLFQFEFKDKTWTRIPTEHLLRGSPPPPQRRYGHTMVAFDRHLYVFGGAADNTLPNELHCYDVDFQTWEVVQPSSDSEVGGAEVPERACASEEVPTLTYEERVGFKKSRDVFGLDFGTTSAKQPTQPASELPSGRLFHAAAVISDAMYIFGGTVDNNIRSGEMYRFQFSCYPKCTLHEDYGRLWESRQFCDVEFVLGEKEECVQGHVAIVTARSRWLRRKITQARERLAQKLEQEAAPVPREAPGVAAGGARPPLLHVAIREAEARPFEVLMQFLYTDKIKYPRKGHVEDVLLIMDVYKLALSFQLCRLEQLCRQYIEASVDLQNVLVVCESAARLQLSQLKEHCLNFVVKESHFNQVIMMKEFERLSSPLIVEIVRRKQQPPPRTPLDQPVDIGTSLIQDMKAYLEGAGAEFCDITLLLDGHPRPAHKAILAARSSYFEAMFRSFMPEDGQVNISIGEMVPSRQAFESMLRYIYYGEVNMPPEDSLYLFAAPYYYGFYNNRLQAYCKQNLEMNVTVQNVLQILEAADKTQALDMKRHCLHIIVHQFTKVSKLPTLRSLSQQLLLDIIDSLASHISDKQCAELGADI
Description: IP/MS, LZTR1 wild type-FLAG, U87. In outline:
as §1

B1: SCYL1 (other, human, UniProt Q96KG9 1-808, looked up)
chain: MWFFARDPVRDFPFELIPEPPEGGLPGPWALHRGRKKATGSPVSIFVYDVKPGAEEQTQVAKAAFKRFKTLRHPNILAYIDGLETEKCLHVVTEAVTPLGIYLKARVEAGGLKELEISWGLHQIVKALSFLVNDCSLIHNNVCMAAVFVDRAGEWKLGGLDYMYSAQGNGGGPPRKGIPELEQYDPPELADSSGRVVREKWSADMWRLGCLIWEVFNGPLPRAAALRNPGKIPKTLVPHYCELVGANPKVRPNPARFLQNCRAPGGFMSNRFVETNLFLEEIQIKEPAEKQKFFQELSKSLDAFPEDFCRHKVLPQLLTAFEFGNAGAVVLTPLFKVGKFLSAEEYQQKIIPVVVKMFSSTDRAMRIRLLQQMEQFIQYLDEPTVNTQIFPHVVHGFLDTNPAIREQTVKSMLLLAPKLNEANLNVELMKHFARLQAKDEQGPIRCNTTVCLGKIGSYLSASTRHRVLTSAFSRATRDPFAPSRVAGVLGFAATHNLYSMNDCAQKILPVLCGLTVDPEKSVRDQAFKAIRSFLSKLESVSEDPTQLEEVEKDVHAASSPGMGGAAASWAGWAVTGVSSLTSKLIRSHPTTAPTETNIPQRPTPEGVPAPAPTPVPATPTTSGHWETQEEDKDTAEDSSTADRWDDEDWGSLEQEAESVLAQQDDWSTGGQVSRASQVSNSDHKSSKSPESDWSSWEAEGSWEQGWQEPSSQEPPPDGTRLASEYNWGGPESSDKGDPFATLSARPSTQPRPDSWGEDNWEGLETDSRQVKAELARKKREERRREMEAKRAERKVAKGPMKLGARKLD
For the molecule B1, the binding result in test [1] and in test [2] was “binds” each time.

B2: SHKBP1 (other, human, UniProt Q8TBC3 2-707, looked up)
chain: AAAATAAEGVPSRGPPGEVIHLNVGGKRFSTSRQTLTWIPDSFFSSLLSGRISTLKDETGAIFIDRDPTVFAPILNFLRTKELDPRGVHGSSLLHEAQFYGLTPLVRRLQLREELDRSSCGNVLFNGYLPPPVFPVKRRNRHSLVGPQQLGGRPAPVRRSNTMPPNLGNAGLLGRMLDEKTPPSPSGQPEEPGMVRLVCGHHNWIAVAYTQFLVCYRLKEASGWQLVFSSPRLDWPIERLALTARVHGGALGEHDKMVAAATGSEILLWALQAEGGGSEIGVFHLGVPVEALFFVGNQLIATSHTGRIGVWNAVTKHWQVQEVQPITSYDAAGSFLLLGCNNGSIYYVDVQKFPLRMKDNDLLVSELYRDPAEDGVTALSVYLTPKTSDSGNWIEIAYGTSSGGVRVIVQHPETVGSGPQLFQTFTVHRSPVTKIMLSEKHLISVCADNNHVRTWSVTRFRGMISTQPGSTPLASFKILALESADGHGGCSAGNDIGPYGERDDQQVFIQKVVPSASQLFVRLSSTGQRVCSVRSVDGSPTTAFTVLECEGSRRLGSRPRRYLLTGQANGSLAMWDLTTAMDGLGQAPAGGLTEQELMEQLEHCELAPPAPSAPSWGCLPSPSPRISLTSLHSASSNTSLSGHRGSPSPPQAEARRRGGGSFVERCQELVRSGPDLRRPPTPAPWPSSGLGTPLTPPKMKLNETSF
Consider B2, for which the binding result in test [1] and in test [2] was “binds” each time.

B3: SPRYD3 (other, human, UniProt Q8NCJ5 1-442, looked up)
chain: MRRTRRPRFVLMNKMDDLNLHYRFLNWRRRIREIREVRAFRYQERFKHILVDGDTLSYHGNSGEVGCYVASRPLTKDSNYFEVSIVDSGVRGTIAVGLVPQYYSLDHQPGWLPDSVAYHADDGKLYNGRAKGRQFGSKCNSGDRIGCGIEPVSFDVQTAQIFFTKNGKRVGSTIMPMSPDGLFPAVGMHSLGEEVRLHLNAELGREDDSVMMVDSYEDEWGRLHDVRVCGTLLEYLGKGKSIVDVGLAQARHPLSTRSHYFEVEIVDPGEKCYIALGLARKDYPKNRHPGWSRGSVAYHADDGKIFHGSGVGDPFGPRCYKGDIMGCGIMFPRDYILDSEGDSDDSCDTVILSPTARAVRNVRNVMYLHQEGEEEEEEEEEEEDGEEIEPEHEGRKVVVFFTRNGKIIGKKDAVVPSGGFFPTIGMLSCGEKVKVDLHPLSG
In the case of B3, the binding result in test [1] and in test [2] was “binds” in each case.

B4: SMS (other, human, UniProt P52788 2-366, looked up)
chain: AAARHSTLDFMLGAKADGETILKGLQSIFQEQGMAESVHTWQDHGYLATYTNKNGSFANLRIYPHGLVLLDLQSYDGDAQGKEEIDSILNKVEERMKELSQDSTGRVKRLPPIVRGGAIDRYWPTADGRLVEYDIDEVVYDEDSPYQNIKILHSKQFGNILILSGDVNLAESDLAYTRAIMGSGKEDYTGKDVLILGGGDGGILCEIVKLKPKMVTMVEIDQMVIDGCKKYMRKTCGDVLDNLKGDCYQVLIEDCIPVLKRYAKEGREFDYVINDLTAVPISTSPEEDSTWEFLRLILDLSMKVLKQDGKYFTQGNCVNLTEALSLYEEQLGRLYCPVEFSKEIVCVPSYLELWVFYTVWKKAKP
Turning to B4, the binding result in test [1] and in test [2] was “binds” in each case.

B5: SHCBP1 (other, human, UniProt Q8NEM2 2-672, looked up)
chain: ADGSLTGGGLEAAAMAPERMGWAVEQELASLEKGLFQDEDSCSDCSYRDKPGSSLQSFMPEGKTFFPEIFQTNQLLFYERFRAYQDYILADCKASEVQEFTAEFLEKVLEPSGWRAVWHTNVFKVLVEITDVDFAALKAVVRLAEPYLCDSQVSTFTMECMKELLDLKEHRLPLQELWVVFDDSGVFDQTALAIEHVRFFYQNIWRSWDEEEEDEYDYFVRCVEPRLRLHYDILEDRVPSGLIVDYHNLLSQCEESYRKFLNLRSSLSNCNSDSEQENISMVEGLKLYSEMEQLKQKLKLIENPLLRYVFGYQKNSNIQAKGVRSSGQKITHVVSSTMMAGLLRSLLTDRLCQEPGEEEREIQFHSDPLSAINACFEGDTVIVCPGHYVVHGTFSIADSIELEGYGLPDDIVIEKRGKGDTFVDCTGADIKISGIKFVQHDAVEGILIVHRGKTTLENCVLQCETTGVTVRTSAEFLMKNSDLYGAKGAGIEIYPGSQCTLSDNGIHHCKEGILIKDFLDEHYDIPKISMVNNIIHNNEGYGVVLVKPTIFSDLQENAEDGTEENKALKIQTSGEPDVAERVDLEELIECATGKMELCARTDPSEQVEGNCEIVNELIAASTQKGQIKKKRLSELGITQADDNLMSQEMFVGIVGNQFKWNGKGSFGTFLF
For the molecule B5, the binding result in test [1] and in test [2] was “binds” each time.

B6: SMG9 (other, human, UniProt Q9H0W8 2-520, looked up)
chain: SESGHSQPGLYGIERRRRWKEPGSGGPQNLSGPGGRERDYIAPWERERRDASEETSTSVMQKTPIILSKPPAERSKQPPPPTAPAAPPAPAPLEKPIVLMKPREEGKGPVAVTGASTPEGTAPPPPAAPAPPKGEKEGQRPTQPVYQIQNRGMGTAAPAAMDPVVGQAKLLPPERMKHSIKLVDDQMNWCDSAIEYLLDQTDVLVVGVLGLQGTGKSMVMSLLSANTPEEDQRTYVFRAQSAEMKERGGNQTSGIDFFITQERIVFLDTQPILSPSILDHLINNDRKLPPEYNLPHTYVEMQSLQIAAFLFTVCHVVIVVQDWFTDLSLYRFLQTAEMVKPSTPSPSHESSSSSGSDEGTEYYPHLVFLQNKARREDFCPRKLRQMHLMIDQLMAHSHLRYKGTLSMLQCNVFPGLPPDFLDSEVNLFLVPFMDSEAESENPPRAGPGSSPLFSLLPGYRGHPSFQSLVSKLRSQVMSMARPQLSHTILTEKNWFHYAARIWDGVRKSSALAEYSRLLA
In the case of B6, the binding result in test [1] and in test [2] was “binds” each time.

B7: SL C39A14 (other, human, UniProt Q15043 31-492, looked up)
chain: SSLGAPAISAASFLQDLIHRYGEGDSLTLQQLKALLNHLDVGVGRGNVTQHVQGHRNLSTCFSSGDLFTAHNFSEQSRIGSSELQEFCPTILQQLDSRACTSENQENEENEQTEEGRPSAVEVWGYGLLCVTVISLCSLLGASVVPFMKKTFYKRLLLYFIALAIGTLYSNALFQLIPEAFGFNPLEDYYVSKSAVVFGGFYLFFFTEKILKILLKQKNEHHHGHSHYASESLPSKKDQEEGVMEKLQNGDLDHMIPQHCSSELDGKAPMVDEKVIVGSLSVQDLQASQSACYWLKGVRYSDIGTLAWMITLSDGLHNFIDGLAIGASFTVSVFQGISTSVAILCEEFPHELGDFVILLNAGMSIQQALFFNFLSACCCYLGLAFGILAGSHFSANWIFALAGGMFLYISLADMFPEMNEVCQEDERKGSILIPFIIQNLGLLTGFTIMVVLTMYSGQIQIG
notes: Printed as SL C39A14; read as SLC39A14
For the molecule B7, the binding result in test [1] and in test [2] was “binds” throughout.
